Source: a protein production outcome set (Wang et al. 2014)

Assay: label from the status in PepcDB records
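Also: failed if final PepcDB status was selected cloned or expressed and not failed if soluble or beyond.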

In the case of “MTSSRVNSLIVGGFVLILLGGIIAAATILAGKTGSTDTYFTSYDNVTGIKYGTQVLYEGYRIGQVDEIIPEQRAEGTSFRLRLAVQKGWRIPEGSQTTIATSGLLSAVAINIRGGTAEASLTPGSEIPGGASGGMFAAINDLASEVGTLSRDGLEPLVAKLNAYVDTLGGSLADNLPAILGNARITSEAIARDLPPIIARVDRFTARLDAEVLSQKNIDGLGASIGNISAFSAELNGLGRELRQTGQTLDGMVAGSAPLVDSSLRDLRYTLRALASSIDAITFNMEGASRDMKEFSRSLRQNPGVLLRGSAPAEDGR”, the protein production is reported as “failed”.
In the case of “MSDPGFEYAPIGLVELENRVIRRCNLHFASMFGGQESEYRDMPLLRLYPSHEDFERIGKRGLQVMRETGYYTDERIMRRRDGDLFWCRARGKSLTPDDPFRHGIWSFADISEERRVVELTPREREVALLTCRGLSAKEVGVELGLSYRTIEAHRARLLQKFGARKLPELVAKLSGMPL”, the protein production is reported as “failed”.
For “MAQKENNIIPMIFDEAFYRKMATQKWRQQDYKKAAEYYEKVLELSPKDFDIQQHYAQCLVKLNIGKKAERLFYENIVKDFHVAESFYELSQLNIELNEPNKAFLFGINYVILSEDKDFREMLEKTFEVAYTNEQKIELEAQLFSTQLLFQFLFSQGRLEEARTYILNQSYEIQQHRVIRNLLAMCYLYLGEYDSAKAMFEELLKEDNSDVHALCHYTLLLYNKKETEKYQKYLKILNKVVPLNDDETFKLGIVLSYLKQYRASQNLLYPLYKKGKFVSIQMYNALSFNFYYLGNKDESIEMWNKLTQISKVDVGYAPWVIEESKTVFESRVLPLLLDDNNHYRLYGIFLLHQLNGKEILMTEDIWSILESMNDYEKLYLTYLVQGLTLNKLDFIHRGMQRLYNFKKFKYNTSLFTDWINQAEMIISENVDLVDVDRYVAAFVYLSYRRSSQPLTKRQLMDDFNVSRYKLNKAIEFILSI”, the protein production was “failed”.
For “MSDTPQAILLMGPTASGKTGLALELARRFPVEIVSVDSALVYRDMDIGTAKPTAEEMAACPHHLIDVISPLQSYSAAQFHADANRLIADIQARGKLPLLVGGTMLYYKALLEGLSDLPQADAALRAELDADAALLGWPAMHARLAELDPATASRLNPNDSQRIHRALEVCLLSGKPMSELIAQGKEAAAGFRFLPLALVPRERGWLHARIAERFRIMLEQGFLDEVSRLRAKYPELTLNLPSMRCVGYRQAWEHQDGLYGHDEFVERGVAATRQLAKRQLTWTRSLDAIPVDAQRDGLAGLLGDAVDDFLAGRPPAESLRYAGDFLEHHHHHH”, the protein production was “not failed”.
For “MKKYILIGLGGAIGAILRCFIRNTKIPVYKGEFPISTLMINLSGAFILAVILITANEIWSFNEEIRLGIATGFVGAYTTFSTMCKETIILMNKNLYFLAFCYVTVSVVFGLLFAYFGALSARKILSRLLKVRKEDEKAS”, the protein production was “failed”.
With “MRQHLSLFPFILFLLLAFSYVGCRTVRQTPKQSERYVVVLSLDGFRPDYTDRARTPALDRMAQEGLSGSLQPCFPSLTFPNHYSMATGLYPDHHGIVANEFVDSLLGIFRISDRKAVETPGFWGGEPVWNTAARQGIRTGVYFWVGSETAVNGNRPWRWKKFSSTVPFRDRADSVIAWLGLPEKERPRLLMWYIEEPDMIGHSQTPESPLTLAMVERLDSVVGYFRKRLDSLPIAAQTDFIIVSDHGMATYENEKCVNLSHYLPADSFLYMATGAFTHLYPKPSYTERAYEILRAIPHISVYRKGEVPKRLRCGTNPRLGELVVIPDIGSTVFFAINEDVRPGAAHGYDNQAPEMRALLRAVGPDFRPGSRVENLPNITIYPLICRLLGIEPAPNDADETLLNGLIRDKRP” the protein production was “failed”.
For “MFRSSRRQAAFDFDLLMPETPARRTARAANPDRDVVDAEFVTIKENRVRQPGNDNRGAARRQMVKPSVTIGALGLAFIGWLDRRLSRLSADAYSALVAGLAIFVFVCSGGLSVVVPETSAVAASVNPLAISHVTITPQEAGGMDILLINGIVENNGGNLEEVPALRADLFAAKGQLVASMVIEPPVKEMQPGFSHGFSAKLRHPGGKTPEIKLSFVEAGASAR”, the protein production was “failed”.
In the case of “MDIEDLRTFVAVADAGGVSAAARRLGISKSIVSRRLFRIEAELGVQLLARTTRGAALTEAGITFRDHAARASAEIDTARETILPAGELHGRLRIAMPLTFGPTHFAPVLAEMARQHPQLHIHTSYSDRFVDLIAEGFDCAIRGAYLQDSNLIAKRVGPIHGKLVASPAYIKAHGSPEMVEQLVNHQALMQGTEAWQFMDGDRIVTVQPQGKFKADSATALAAAAAAGLGIAWLPDCITHAYLASGALVPIMTRYPVPPGAVYVVRPPSQHPARKVRVLTEMLTEYFKRTPELWGVDG”, the protein production is reported as “failed”.
In the case of “MDLPVDEWKSYLLQKWASLPTSVQVTISTAETLRDIFLHSSSLLQPEDELFLKRLSKGYLVGKDSDAPLFYREEGNKKFQEKDYTGAAVLYSKGVSHSRPNTEDMSLCHANRSAALFHLGQYETCLKDINIAQTHGYPERLQPKIMLRKAECLVALGRLQEASQTISDLERNFTATPALADVLPQTLQRNLHRLKMKMQEKDSLTESFPAALAKTLEDAALREENEQLSNASSSIGLCVDPLKGRCLVATKDILPGELLVQEDAFVSVLNPGELPPPHHGLDSKWDTRVTNGDLYCHRCLKHTLATVPCDGCSYAKYCSQECLQQAWELYHRTECPLGGLLLTLGVFCHIALRLTLLVGFEDVRKIITKLCDKISNKDICLPESNNQVKTLNYGLGESEKNGNIVETPIPGCDINGKYENNYNAVFNLLPHTENHSPEHKFLCALCVSALCRQLEAASLQAIPTERIVNSSQLKAAVTPELCPDVTIWGVAMLRHMLQLQCNAQAMTTIQHTGPKGSIVTDSRQVRLATGIFPVISLLNHSCSPNTSVSFISTVATIRASQRIRKGQEILHCYGPHKSRMGVAERQQKLRSQYFFDCACPACQTEAHRMAAGPRWEAFCCNSCGAPMQGDDVLRCGSRSCAESAVSRDHLVSRLQDLQQQVRVAQKLLRDGELERAVQRLSGCQRDAESFLWAEHAVVGEIADGLARACAALGDWQKSATHLQRSLCVVEVRHGPSSVEMGHELFKLAQIFFNGFAVPEALSTIQKAEEVLSLHCGPWDDEIQELQKMKSCLLDLPPTPVGPAL”, the protein production is reported as “failed”.
With “MSDQKNRRNALIGAAFLMATSAIGPGFLTQTATFTQALAASFGFVILLSILLDIGAQLNIWRIVAVSEKQAQDIANQVLPGAGYFLAVLIVMGGLAFNIGNVGGAGLGLNLLTGLSPETGAVISGVIAIGVFLFKEAGKVMDKFAQVMGFVMIALTVYVAWQANPPLADAAVHTFMPEKLDAMAIVTLVGGTVGGYITFAGAHRLLDAGIKGKSALPEVSQSSVRAILIASIMRIVLFLAVLGVVSQGVQLNPDNPASTPFEYAAGYIGLLIFGVVIWAASITSVIGAAYTSVSFFSGLSPSIERNKNKWIIAFIAVSTAVFSTIGKPAQVLVFVGALNGLILPISLGLILIAAYKTKIVGDYKHPLWLTVSGVIVVGLMAVLSAITISKYIGGLFG” the protein production was “failed”.
In the case of “MNATHDLQSTPSRLRRFACMMYEGVLLFGVVFIASYLFDTLTQSKHGLMLRDGRQVWLFLVIGLYFVLCWRRRGQTLPMKTWNIRLVDRDGQPPSTPRLVLRYVLAWPLPLGAAALVWLASSLTGWRSVDMFIVLAPFAIFAWSWVDPDGQFLHDRLLGTRLRNAPPRAARAVAGT”, the protein production is reported as “failed”.
With “MFESLNKVINGYGLISGFAIIGVTMAVSYWLSARLTRGRLHGSAIAIFLGLVLSYVGGVATGGQKGLVDVPLMSGIGLLGGAMLRDFAIVATAFGVNVEELRRAGVSGVVSLFLGVGSSFVAGVAVAMAFGYTDAVSLTTIGAGAVTYIVGPVTGAALGASSEVMALSIAAGLVKAILVMVLTPFVAPYIGLNNPRTAVIFGGLMGTSSGVAGGLAATDPKLVPYGCLTAAFYTAIGCLLGPSLLYFSVRGLVG” the protein production was “failed”.
For “MTRNDSGDLISRNDSTNHMNTTQPQKMLPEATFSDRMLEIGIKYKKQLTALVVVICLAAGGTLFWMQKTKVDEVQASLALAKITPWIEMGDVNKAVNGEGSIKGLNSIIKTWGGTPSGKTARLYMAYILLNSGKPDDALSIYKGFSSDNKDLQASALAGAAACHVQKKAFAEAAPEYEKASETAENETLKSMYLTKAAESYSAAGQADKAAKLYDQVIKTWPATSSAGMAQRALLRLAGAGVQIPQI”, the protein production was “failed”.
In the case of “MVLKERHKKICLLPSYSRLAHYPGLLMLTTLIYRSHIRGDEPVKKIEEMVSIANRRNMRSDVTGILLFNGSHFFQLLEGPEEQVQMIYRAICQDPRHYNIVELLCDYAPARRFGKAGMELFDLRLHERDDVLQAVFDKGTSKFQLTYDDRALQFFRTFVLATEQSTYFEIPAEDSWLFIADGSDKELDSCTLSSNINDHFAFHPIVDPLSRRIIAFEAIVQKNEDSPSAIAVGQRKDEEIYTADLKSKALAFAMAHALKLGDKMISINLLPMTLVNKPDAVSFLLDEIKANALVPEQIIVEFTESEVISRFDEFAEAVKSLKAAGISVAIDHFGAGFAGLLLLSRFQPDRIKISQELITNVHKSGPRQAIIQAIMKCCTSLEIQVSAMGVATPEEWMWLESAGIEMFQGDLFSKAKLNGIPSVAWPEKK”, the protein production is reported as “failed”.
With “MVVYPNEEAENGSLRFVDFVNKTFALLGNSPIKKFSLRHEPRLYCVDAYLRWIFTAMEQERGLLELHLYADRYYYPVGIERELFTSNTLVKLTLSGRYDFQVETVFLPALKSLSLSSSFEIGFDKYCNLLDGFPALEELYIREAVSELSNALLSSGTFVKCASIKRLVVFTDCPKFKEDEDHQEPCFIAPSLVYLDYSSYLSENYDLIDLNSLVEARLNLRLLESFNNYGSSDNDGDVYGWDFNVPFDYYGDVTNLVAGITNITTLHLSPDSLEVFHFRCKSIPVFNNLLLNLSIESNKRNGWQVMPLLIRSCPNLHTLVIKGFVHRVTSKCGDACACIPKKQRKIGKKEEISEYGGSFQELEQMRHFLGKLERLETVKVGVHAENNNNNEFLRANLLTLPRLSSKCNNIQFI” the protein production was “failed”.
In the case of “MRFIITLFLILQLTTLAFSAHSRDKIGLVLSGGGAKGSAHIGVLKVLEQHNIPIDYVVGTSIGAYVGGMYALGYEVSEIEAIMLGMPWDESYSDFIPRESLAYDKKQHRDRYNISIRLGYSDGEFKVPHGLLLGQSAYQILQRSTDTVRSFDSFDDLAIPYRAVASDIATAKMVVLDSGSINEAMKASAAVPGIVAAVEIDGKTLVDGGITNNMPIDVIKAMGADIVIAIDIGSPLAEQSELTSTVSVLNQLSTILTNNTSLAQKALLTDKDILLRPAIDKLSTTDWSVMPEALKLGEQEAQAQSQALMKLAISDVDYQAYKNQKKLKAKKWFDALPRHITKIKINNNSKVENDIIEKVFAVELGKKLTKEALDLAINRVYALDKFEQVTVEFDDSPEGRIITLTTQAKSWGPNYFDFGFNLKTDFSDQSITSINMSYLMTNVSMNGGRWLNELELGWESLLASEFYQPLDHSHDIYSRARVSFAQDKWEKTSFREELRNEYYQATLALGYDYSFKGIIELGVIAETGDLSLDKPGTDDFDYDSYGSFITFGYDTLDSINFPTNGNKLLIEVKWLKDEYSPQLSDVEKDTATTFALDWRGAIGIRGHTFVGIASFATIDNESDFSVHVTELGGFLNLSGYQEDALIGVHKVFAAVVYQYDLGREIPGGSGLPIYLGTSLEAGNVWGGEDRIRYNDLISSGSIYLGTDTSFGPAVLGMGFATSGEHSFFLSIGKNW”, the protein production is reported as “failed”.
For “MSAVTESVLESIISPVTMSEFLEEYWPVKPLVARGEVERFTSIPGFEKVRTLENVLAIYNNPVMVVGDAVIEESEGITDRFLVSPAEALEWYEKGAALEFDFTDLFIPQVRRWIEKLKAELRLPAGTSSKAIVYAAKNGGGFKAHFDAYTNLIFQIQGEKTWKLAKNENVSNPMQHYDLSEAPYYPDDLQSYWKGDPPKEDLPDAEIVNLTPGTMLYLPRGLWHSTKSDQATLALNITFGQPAWLDLMLAALRKKLISDNRFRELAVNHQSLHESSKSELNGYLESLIQTLSENAETLTPEQIFQSQDSDFDPYQSTQLVFRQLLTSYKF”, the protein production was “not failed”.
